Measured values published in PMC9570017, “Unorthodox PCNA Binding by Chromatin Assembly Factor 1” (International Journal of Molecular Sciences, 2022).
No end group written: not given here.

Assays:
[1] = molecular target: T1, proliferating cell nuclear antigen (PCNA), wild type (human, UniProt P12004 1-261); assay: ITC; peptide (200 to 500 uM in the syringe) titrated into PCNA (20 to 50 uM monomer in the cell); 10 mM sodium phosphate pH 7.0, 10 mM NaCl, 23 °C; single binding site model; apparent Kd; conditions: both partners purified
T1 construct: human PCNA purified from E. coli; Homo-trimeric ring (88.7 kDa as printed); Human is stated for the ITC; In the functional rows PCNA is the endogenous protein of the human HEK-293 S100 extract; also called human PCNA; source: E. coli, purified
T1 sequence (P12004 whole entry): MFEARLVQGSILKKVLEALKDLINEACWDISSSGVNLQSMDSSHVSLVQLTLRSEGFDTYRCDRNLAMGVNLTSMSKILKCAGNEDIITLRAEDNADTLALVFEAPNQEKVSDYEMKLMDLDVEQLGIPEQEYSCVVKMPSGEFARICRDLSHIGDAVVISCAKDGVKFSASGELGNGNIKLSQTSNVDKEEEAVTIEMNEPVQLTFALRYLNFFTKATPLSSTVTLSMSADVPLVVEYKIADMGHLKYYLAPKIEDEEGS

mouse NIH3T3 cells = assay: Localization of GFP-p150 relative to PCNA replication foci in mid S-phase NIH3T3 cells; assay type: cell-based; conditions: for localization to heterochromatin foci: DAPI staining
Description: Cells in early S-phase show numerous small PCNA foci distributed throughout the nucleus. These foci can be resolved from each other using super-resolution microscopy but are difficult to resolve from each other by confocal microscopy. This makes protein localization to early S-phase PCNA foci difficult to assess using conventional tools for microscopy. Mid S-phase is the stage when perinuclear and peri-nucleolar chromatin are replicated. The corresponding PCNA foci are relatively large and distant from each other, making co-localization of a protein of interest with PCNA straightforward. Late S-phase is the stage when pericentric heterochromatin replicates. […] Because of these constraints, we focused our attention on cells with patterns of PCNA foci characteristic of mid S-phase. As reported in previous studies, we observed a distinct immunostaining pattern for PCNA with the monoclonal antibody PC10. During mid S-phase, staining of PCNA with PC10 occurred within foci located around the periphery of the nuclear envelope (Figure 4B, top panel, PC10). […] Asynchronously proliferating mouse NIH 3T3 cells were transduced with lentiviral vectors, and expression of wild-type and mutant forms of GFP-p150 was induced with doxycycline. Cells were fixed and permeabilized for PCNA detection with the PC10 monoclonal antibody. Mid-S phase cells were identified based upon their stereotypical pattern of PCNA staining at the nuclear periphery. […] The Pearson’s correlation coefficient of GFP WT-mp150 was 0.6, and 0.25 for the mutant GFP-p150 R426D. This is consistent with previous observations, that when CAF-1 is unable to bind to PCNA, it prematurely associates with pericentric heterochromatin in early and mid S-phase.
To study the localization of GFP CAF-1 p150 wild-type and mutants relative to that of PCNA, cDNAs encoding mouse p150 were cloned into a doxycycline-inducible lentiviral vector pCW-Cas9 plasmid encoding a TetON (minimal CMV) promoter (Addgene plasmid 50661). The Cas9 insert was replaced by wild-type or mutant mouse CAF-1 p150 using the restriction enzymes NheI and BamHI. GFP-p150 wild-type and mutant fusion proteins were excised from the EGFP-C1 vector (Clonetech) using Nhe1 and BamH1 restriction enzymes as previously reported. NheI and BamHI digested fragments were run on 0.8% agarose gel and the corresponding DNA bands: vector—pCW-Cas9 (7036 bp) and inserts—wild-type mp150, R426D (3983 bp) were gel purified using Qiagen DNA extraction spin prep columns. Purified DNAs were ligated using the Takara DNA ligase enzyme, following the manufacturer’s recommended protocol. Positive clones were selected on Luria-Bertani medium containing 100 µg/mL ampicillin, and after DNA isolation, the clones were verified by DNA sequencing. […]

[2] = system: DNA replication-coupled nucleosome assembly (S100 extract from human HEK-293 cells); assay: Replication-dependent nucleosome assembly assay (SV40 DNA replication, S100 extract); assay type: biochemical; conditions: increasing amounts of in vitro translated p150 (rCAF-1: positive control); 45 min + 45 min at 37 °C; autoradiography
Description: We next sought to compare the activities of CAF-1 p150, wild-type, and the R426D mutant in a replication-coupled chromatin assembly assay. As a first step to performing this assay, we expressed CAF-1 p150 wild-type and the R426D mutant in a rabbit reticulocyte lysate coupled transcription and translation system and labelled the proteins with [^35S]-methionine. […] In the replication coupled chromatin assembly system, an S100 extract from cultured human HEK-293 cells provides all the cellular DNA replication enzymes and histones but lacks CAF-1 p150 [37]. To this extract, a plasmid containing an SV40 origin of replication and the viral replication protein, SV40 large T antigen, were added to support SV40 DNA replication. Radiolabeled dATP was also added to visualize the replication products by autoradiography.
In contrast, when the recombinant CAF1 protein (p150, p60, p48) or the p150 subunit alone are added, they bind to histones in the S100 extract and promote nucleosome assembly coupled with DNA replication. DNA topoisomerase enzyme I, which is present in the S100 extract (and further supplemented in these assays to ensure sufficient levels), removes the positive supercoiling in the linker DNA that connects nucleosomes, leaving negative supercoiling due to DNA wrapping around histone octamers (evident upon subsequent removal of the histones and electrophoresis).
Replication reactions were assembled as previously reported. […]
The reactions were extracted using phenol, chloroform, and isoamyl alcohol (25:24:1) and the DNA was then precipitated with sodium acetate and ethanol. […] The products of replication were analyzed using a native 1.25% agarose gel in 1X TAE buffer with 1 mM MgCl2, without the addition of ethidium bromide. […] The gel was subsequently imaged and analyzed using a phosphor imager (Typhoon FLA 7000) to visualize the replicated DNA.

IKAEKAEITRFFQKPKTPQA (also: expressed as a GST fusion) [CAF-1 PIP wild-type peptide (expressed as a GST fusion)]
Kd [1]: 24 µM
dH [1]: -1.87 kcal/mol
stoichiometry N [1]: 0.83

B1: GFP-p150 R426D: GFP fusion of mouse CAF-1 p150 with R426D mutation (protein, UniProt Q9QWF0 1-911, looked up, variant R426D)
Chromatin assembly factor 1 …: MLEEPEAATRTAAAVDCKDRPGFPVKRLIQARLPFKRLNLVPKEKVEEDTSPKAAVESKVPDLQLSLGTFESQCHTGSHVGLSTKLVGGQGPIDSFLRATIKPVPSVVIIDLTENCSDIPDSPEGHSELSPDTAGVVTTVEGAAKQQEHSAAELCLLETPSDITCHMEEEPGSPGDPKRTGDCQAGSLQSCPELTPGSRTCPTKELSSWSKAGDLLFIEKVPVVVLEDILATKPSIASLPMMSLDRSVTSESEILESCPEDDSILSHSSTNSSSPTSSPEGPSTPPEHRGGRSSPSTPACRVAKNFVKGSTEKGRSKLHRDREQQREEKEKLREEIRRAKEEARKKKEEEKELKEKERREKREKDEKEKAEKQRLKEEKRKERQEALEAKLEEKRKKEEEKRLREEEKRLREEEKRIKAEKAEITDFFQKPKTPQAPKTLAGSCGKFAPFEIKEHMVLAPRCRAALDQDLCDQLDQLLQQQSVASTFLSDLKSRLPLRSGPTRVCGHDTDIMNRDVVIVESSKVDGVSERKKFGRMKLLQFSENHRPAYWGTWNKKTAIIRPRNPWAQDKDLLDYEVDSDDEWEEEEPGESLSHSEGDEDDDVGEDEDEDDGFFVPHGYLSEDEGVTEECADPENHKVHQKLKAKEWDELLAKGKRFRVLQPVHVGCVWASEAANCTSSDLKLLQQFTACLLDVASPDEPEPGASRREKRDQHILAQLLPLLHGNVNGSKVIIHEFQEQCRRGLLTLPSPTPHLQMPNLEDAVAVPSKARLKRLISENSAYEKRPNFRMCWYVHPEVLKSFGQECLPVPCQWTYITTMPSAPREDSGSASTEGPGQSTPMLLKRKPAATMCITQFMKKRRYDGQVGSGDMDGFQADTEEDEEDDTDCMIIDVPDVGSDVSEAPIPAPTLCK
modifications: GFP fusion
notes: GFP fusion of mouse CAF-1 p150 with R426D mutation
Pearson’s correlation coefficient (mouse NIH3T3 cells; GFP-p150 vs PCNA (PC10), mid S-phase NIH3T3 cells, doxycycline 2 µg/mL): 0.25
localization to heterochromatin foci (mouse NIH3T3 cells; mid S-phase): anomalously found largely within the nuclear interior and the large heterochromatic foci
localization to heterochromatin foci (mouse NIH3T3 cells; mid S-phase, listed as CAF-1 p150 R426D): more localized to the pericentric heterochromatin
localization to PCNA foci at nuclear periphery (mouse NIH3T3 cells; mid S-phase, confocal microscopy, PC10 staining): did not co-localize with PCNA foci at the nuclear periphery

B2: wild-type CAF-1 p150: full-length mouse CAF-1 p150 expressed in rabbit reticulocyte lysate (protein)
chain: MLEEPEAATRTAAAVDCKDRPGFPVKRLIQARLPFKRLNLVPKEKVEEDTSPKAAVESKVPDLQLSLGTFESQCHTGSHVGLSTKLVGGQGPIDSFLRATIKPVPSVVIIDLTENCSDIPDSPEGHSELSPDTAGVVTTVEGAAKQQEHSAAELCLLETPSDITCHMEEEPGSPGDPKRTGDCQAGSLQSCPELTPGSRTCPTKELSSWSKAGDLLFIEKVPVVVLEDILATKPSIASLPMMSLDRSVTSESEILESCPEDDSILSHSSTNSSSPTSSPEGPSTPPEHRGGRSSPSTPACRVAKNFVKGSTEKGRSKLHRDREQQREEKEKLREEIRRAKEEARKKKEEEKELKEKERREKREKDEKEKAEKQRLKEEKRKERQEALEAKLEEKRKKEEEKRLREEEKRLREEEKRIKAEKAEITRFFQKPKTPQAPKTLAGSCGKFAPFEIKEHMVLAPRCRAALDQDLCDQLDQLLQQQSVASTFLSDLKSRLPLRSGPTRVCGHDTDIMNRDVVIVESSKVDGVSERKKFGRMKLLQFSENHRPAYWGTWNKKTAIIRPRNPWAQDKDLLDYEVDSDDEWEEEEPGESLSHSEGDEDDDVGEDEDEDDGFFVPHGYLSEDEGVTEECADPENHKVHQKLKAKEWDELLAKGKRFRVLQPVHVGCVWASEAANCTSSDLKLLQQFTACLLDVASPDEPEPGASRREKRDQHILAQLLPLLHGNVNGSKVIIHEFQEQCRRGLLTLPSPTPHLQMPNLEDAVAVPSKARLKRLISENSAYEKRPNFRMCWYVHPEVLKSFGQECLPVPCQWTYITTMPSAPREDSGSASTEGPGQSTPMLLKRKPAATMCITQFMKKRRYDGQVGSGDMDGFQADTEEDEEDDTDCMIIDVPDVGSDVSEAPIPAPTLCK
modifications: [35S]-methionine labelled
supercoiling of replicated DNA / nucleosome assembly [2]: the replication products were supercoiled
